Consider one molecule from patent US20200369775A1 (Dana-Farber, published 2020).

The target of test [1] is T1, IL-2 receptor (IL-2R) complex of α, β and γ chains (UniProt P01589 22-272; P14784 27-551; P31785 23-369).
T1 construct: whole, on cells; co-expressed on transiently transfected 293T cells in the control experiment; also called IL-2Rs; the complex
T1 sequence (looked up) 1: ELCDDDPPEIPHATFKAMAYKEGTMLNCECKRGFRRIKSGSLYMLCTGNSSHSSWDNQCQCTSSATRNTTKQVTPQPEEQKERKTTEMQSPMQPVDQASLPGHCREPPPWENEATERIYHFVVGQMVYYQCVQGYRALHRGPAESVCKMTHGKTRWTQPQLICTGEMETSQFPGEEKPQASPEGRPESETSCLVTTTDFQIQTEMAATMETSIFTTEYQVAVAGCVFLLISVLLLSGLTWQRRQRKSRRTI
T1 sequence (looked up) 2: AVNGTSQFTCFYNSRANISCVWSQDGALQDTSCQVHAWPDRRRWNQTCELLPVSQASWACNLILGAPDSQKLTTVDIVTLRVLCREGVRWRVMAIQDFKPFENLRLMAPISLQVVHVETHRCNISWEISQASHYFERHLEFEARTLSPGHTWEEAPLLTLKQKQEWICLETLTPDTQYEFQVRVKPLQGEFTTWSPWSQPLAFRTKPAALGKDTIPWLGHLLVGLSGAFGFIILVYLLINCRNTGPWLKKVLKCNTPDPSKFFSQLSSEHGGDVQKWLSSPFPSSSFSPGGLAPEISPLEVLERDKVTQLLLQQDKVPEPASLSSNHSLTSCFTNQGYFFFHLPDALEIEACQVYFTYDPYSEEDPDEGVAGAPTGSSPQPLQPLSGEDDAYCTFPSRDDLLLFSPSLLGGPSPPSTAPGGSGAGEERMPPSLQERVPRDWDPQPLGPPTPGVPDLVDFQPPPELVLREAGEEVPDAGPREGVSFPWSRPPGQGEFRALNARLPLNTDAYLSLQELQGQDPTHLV
T1 sequence (looked up) 3: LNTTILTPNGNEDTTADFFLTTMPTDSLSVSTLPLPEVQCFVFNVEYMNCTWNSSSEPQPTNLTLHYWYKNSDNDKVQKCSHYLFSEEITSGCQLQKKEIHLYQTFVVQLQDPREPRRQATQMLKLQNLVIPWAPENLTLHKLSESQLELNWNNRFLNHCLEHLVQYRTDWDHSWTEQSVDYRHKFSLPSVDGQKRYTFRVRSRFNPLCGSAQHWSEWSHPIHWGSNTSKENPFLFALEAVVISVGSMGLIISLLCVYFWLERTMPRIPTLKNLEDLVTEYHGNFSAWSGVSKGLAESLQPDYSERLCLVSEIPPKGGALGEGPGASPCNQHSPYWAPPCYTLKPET
As to the kind of experiment: transiently transfected 293T cells, control experiment.

Test [2] deals with T2, CD25 (TAC), the α chain of IL-2 receptor (UniProt P01589 22-272, limits assumed).
T2 construct: whole, on cells; also called IL-2Rα; α subunit chain
T2 sequence (looked up): T1 sequence (looked up) 1
Described as above.

Test [3] deals with T3, IL-2 receptor β subunit chain (UniProt P14784 27-551).
T3 construct: whole, on cells; also called β chain; IL-2R β
T3 sequence (looked up): T1 sequence (looked up) 2
The test is described as above.

Test [4] has as its target T4, IL-2 receptor γ subunit chain (UniProt P31785 23-369).
T4 construct: whole, on cells; also called γ chain; IL-2R γ
T4 sequence (looked up): T1 sequence (looked up) 3
Described as above.

The target of test [5] is T5, CC chemokine receptor 4 (CCR4) (human, UniProt P51679 1-360).
T5 construct: whole, on cells; Endogenous CCR4 on human T cell subsets and Mac-1 cells
T5 sequence (looked up): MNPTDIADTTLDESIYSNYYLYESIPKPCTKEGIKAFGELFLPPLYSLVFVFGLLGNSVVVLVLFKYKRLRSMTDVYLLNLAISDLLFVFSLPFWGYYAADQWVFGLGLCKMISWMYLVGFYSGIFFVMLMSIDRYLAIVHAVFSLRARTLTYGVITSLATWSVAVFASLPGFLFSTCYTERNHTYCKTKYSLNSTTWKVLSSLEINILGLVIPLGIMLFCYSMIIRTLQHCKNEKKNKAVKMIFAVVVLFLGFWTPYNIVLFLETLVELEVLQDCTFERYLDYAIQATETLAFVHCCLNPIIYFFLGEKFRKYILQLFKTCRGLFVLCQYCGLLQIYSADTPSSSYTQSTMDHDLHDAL
Nature of the test: depletion of CCR4+ tumor-primed T cells with antibody-conjugated beads, checked by flow cytometry. The method, then: FIG. 4. The activity of tumor-primed T cells on IGROV-1 cells. (A) Tumor-primed T cells were stained by anti-CD3, CD4, CD8, CD25 and (B) CCR4 antibodies. CCR4-depleted tumor-primed T cells by mAb2-3-conjugated beads and T cell subsets in tumor-primed T cells were analyzed by flow cytometry. (C) Tumor-primed T cells and mAb2-3-depleted tumor-primed T cells were incubated with IGROV-1 cells for 24 and 48 hours and then the supernatant were harvested and detected the expression level of IFN-γ. […] (D) Intracellular IFN-γ staining of CD4 and CD8 T cells from coculture. Cells were harvested at 48 hours post-coculture; incubated for 6 h in the presence of brefeldin A; stained for CD3, CD4, and CD8; fixed in paraformaldehyde; permeabilized; and stained for intracellular IFN-γ. The cells were gated on lymphocytes by size and CD markers and analyzed by flow cytometry. (E) The cytotoxic activities of tumor-primed T cells and mAb2-3-depleted tumor primed T cells were further detected by LDH ELISA assay. All experiments represented triplicates in each time point with the means±S.D. and performed in two independent experiments. *, **, and *** represents student's t-test p value<0.05, 0.01, and 0.005, respectively.
To establish an OvCA xenograft bearing humanized mouse model, IGROV-1-specific T cells in vitro were created that could be tested subsequently for in vivo immunotherapy. […]
A general note: In flow cytometry, cells or beads pass a laser one at a time.

B1: mAb2-3 (isotype not stated for the experiment) (antibody, V domains shown)
VH: QVQLVQSGAEVKKPGASVKVSCKASGYTFASAWMHWMRQAPGQGLEWIGWINPGNVNTKYNEKFKGRATLTVDTSTNTAYMELSSLRSEDTAVYYCARSTYYRPLDYWGQGTLVTVSS
VL: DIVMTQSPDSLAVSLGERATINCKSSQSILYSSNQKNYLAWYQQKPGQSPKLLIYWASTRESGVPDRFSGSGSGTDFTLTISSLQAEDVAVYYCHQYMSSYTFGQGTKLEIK
Take B1: the binding result is on record as “no binding” in test [1]; “no binding” in test [2]; “no binding” in test [3]; “no binding” in test [4]; “binds” in test [5].
